Results as given in article PMC6767301, “Polyamines Disrupt the KaiABC Oscillator by Inducing Protein Denaturation” (Molecules, 2019).

B1: KaiB (natural protein, Synechococcus elongatus PCC 7942, UniProt Q79PF5 1-102, looked up)
chain: MSPRKTYILKLYVAGNTPNSVRALKTLKNILEVEFQGVYALKVIDVLKNPQLAEEDKILATPTLAKVLPLPVRRIIGDLSDREKVLIGLDLLYGELQDSDDF
notes: KaiB, Synechococcus elongatus PCC 7942; A few vector residues may remain after PreScission cleavage (surmised); also called Kai proteins; clock proteins; source: E. coli, purified (GSH resin, GST removed by PreScission protease, size-exclusion chromatography)
B2: KaiA (natural protein, Synechococcus elongatus PCC 7942, UniProt Q79PF6 1-284, looked up)
chain: MLSQIAICIWVESTAILQDCQRALSADRYQLQVCESGEMLLEYAQTHRDQIDCLILVAANPSFRAVVQQLCFEGVVVPAIVVGDRDSEDPDEPAKEQLYHSAELHLGIHQLEQLPYQVDAALAEFLRLAPVETMADHIMLMGANHDPELSSQQRDLAQRLQERLGYLGVYYKRDPDRFLRNLPAYESQKLHQAMQTSYREIVLSYFSPNSNLNQSIDNFVNMAFFADVPVTKVVEIHMELMDEFAKKLRVEGRSEDILLDYRLTLIDVIAHLCEMYRRSIPRET
notes: KaiA, Synechococcus elongatus PCC 7942; A few vector residues may remain after PreScission cleavage (surmised); also called Kai proteins; clock proteins; source: E. coli, purified (GSH resin, GST removed by PreScission protease, size-exclusion chromatography)
B3: KaiC (natural protein, Synechococcus elongatus PCC 7942, UniProt Q79PF4 1-519, looked up)
chain: MTSAEMTSPNNNSEHQAIAKMRTMIEGFDDISHGGLPIGRSTLVSGTSGTGKTLFSIQFLYNGIIEFDEPGVFVTFEETPQDIIKNARSFGWDLAKLVDEGKLFILDASPDPEGQEVVGGFDLSALIERINYAIQKYRARRVSIDSVTSVFQQYDASSVVRRELFRLVARLKQIGATTVMTTERIEEYGPIARYGVEEFVSDNVVILRNVLEGERRRRTLEILKLRGTSHMKGEYPFTITDHGINIFPLGAMRLTQRSSNVRVSSGVVRLDEMCGGGFFKDSIILATGATGTGKTLLVSRFVENACANKERAILFAYEESRAQLLRNAYSWGMDFEEMERQNLLKIVCAYPESAGLEDHLQIIKSEINDFKPARIAIDSLSALARGVSNNAFRQFVIGVTGYAKQEEITGLFTNTSDQFMGAHSITDSHISTITDTIILLQYVEIRGEMSRAINVFKMRGSWHDKAIREFMISDKGPDIKDSFRNFERIISGSPTRITVDEKSELSRIVRGVQEKGPES
notes: KaiC, Synechococcus elongatus PCC 7942; The sample is a mixture of phosphorylated and de-phosphorylated KaiC; A few vector residues may remain after PreScission cleavage (surmised); also called Kai proteins; clock proteins; source: E. coli, purified (GSH resin, GST removed by PreScission protease, size-exclusion chromatography)

Target: the molecule itself
Experiment: native gel or EMSA; 6% native PAGE of each Kai protein after 4 h of incubation at 30 °C with polyamines (putrescine, spermidine, spermine); 50 mM Tris-HCl pH 8.0, 150 mM NaCl, 5 mM ATP, 5 mM MgCl2, 0.01% Tween-20; total protein 1.0 mg/mL

Binding result, binds:
B1
B2
B3
